Results on one substance are retold here after article PMC12635110.

For the test, the target named is MCPH1-BRCT-eCR (tandem BRCT 2-3 of MCPH1) tandem BRCT domain (BRCT2-3). As to the kind of experiment: FRAP of eGFP in live cells. The conditions noted are these: reference: DMSO, outside spontaneous damage foci; sites S139.

For the substance “H2AX (from UniProt P16104) ETO ~1 h, within a damage focus”, the “other: FRAP recovery half-life” value is on record as “same; reference 1.07 ± 0.76”.
